In patent publication US20070020327A1:

Biological target: HLA-A*2401 (human)
Assay: competition with 125I-labeled probe peptide for purified HLA, gel filtration
Conditions: scale: ratio

| binding affinity ratio (relative to standard peptide) | Substance |
| --- | --- |
| 0.0067 | PAP peptide … (position 83, 10 amino acids) |
| 0.0001 | PSA peptide … (position 98, 9 amino acids) |
| 0.001 | PSM peptide … (position 621, 9 amino acids) |

Biological target: HLA-A*2401 (human)
Assay: competition with 125I-labelled standard peptide for purified HLA, gel filtration
Conditions: not given

| Substance | binding affinity ratio (IC50 of the standard peptide / IC50 of the test peptide) |
| --- | --- |
| PAP peptide … (position 17, 9 amino acids) | 0.0016 |
| PAP peptide … (position 23, 9 amino acids) | 0.0017 |
| PSM peptide … (position 31, 9 amino acids) | 0.019 |
| … (PSA, position 96, 11 amino acids) (peptide) | 0.12 |
| … (PSM, position 74, 10 amino acids) (peptide) | 0.23 |

The next lines start with the values.

| binding affinity ratio (IC50 of the standard peptide / IC50 of the test peptide) | Substance |
| --- | --- |
| 0.0007 | PAP peptide … (position 17, 10 amino acids) |
| 0.0026 | PSM peptide … (position 32, 10 amino acids) |
| 1.1 | PSM peptide … (position 565, 10 amino acids) |
| 0.0002 | PSM peptide … (position 582, 10 amino acids) |
| 0.0022 | … (PAP, position 70, 10 amino acids) (peptide) |
| 0.44 | … (PAP, position 213, 9 amino acids) (peptide) |
| 2.5 | … (PAP, position 318, 9 amino acids) (peptide) |
| 0.44 | … (PSM, position 227, 9 amino acids) (peptide) |
| 0.0075 | … (PSM, position 668, 9 amino acids) (peptide) |

Biological target: HLA-A*2401 (human)
Assay: competition with a 125I-labelled standard peptide for purified HLA, gel filtration
Conditions: not given

| Substance | binding affinity ratio (IC50 of the standard peptide / IC50 of the test peptide) |
| --- | --- |
| PSA peptide … (position 2, 10 amino acids) | 0.0062 |
| PSA peptide … (position 9, 9 amino acids) | 0.11 |
| PSA peptide … (position 9, 10 amino acids) | 0.36 |
| PSM peptide … (position 624, 10 amino acids) | 3.2 |

The remaining lines, values ahead:

| binding affinity ratio (IC50 of the standard peptide / IC50 of the test peptide) | Substance |
| --- | --- |
| 0.0005 | PAP peptide … (position 41, 10 amino acids) |
| 2.1 | PSA peptide … (position 2, 9 amino acids) |

Biological target: HLA-A*2401 (human)
Assay: inhibition of binding of a 125I-labelled standard peptide to purified HLA, gel filtration
Conditions: not given

| Substance | binding affinity ratio (IC50 of the standard peptide / IC50 of the test peptide) |
| --- | --- |
| PAP peptide … (position 22, 10 amino acids) | 0.0045 |
| PAP peptide … (position 123, 9 amino acids) | 0.0033 |
| PAP peptide … (position 123, 10 amino acids) | 0.014 |
| PSM peptide … (position 606, 9 amino acids) | 12 |

The remaining lines, values ahead:

| binding affinity ratio (IC50 of the standard peptide / IC50 of the test peptide) | Substance |
| --- | --- |
| 0.0024 | PAP peptide … (position 205, 9 amino acids) |
| 0.031 | PSA peptide … (position 190, 9 amino acids) |

Biological target: HLA-A*2401 molecule, purified HLA class I (human)
Assay: competition with 125I-labelled probe peptide for purified HLA, gel filtration; relative binding
Conditions: not given

| binding affinity ratio (IC50 of the standard peptide / IC50 of the test peptide) | Substance |
| --- | --- |
| 0.0013 | PAP peptide … (position 62, 9 amino acids) |
| 0.26 | PAP peptide … (position 96, 9 amino acids) |
| 0.0001 | PSA peptide … (position 224, 9 amino acids) |

Biological target: HLA-A*2401 (human)
Assay: competitive inhibition of 125I-labelled standard peptide binding to purified HLA, gel filtration
Conditions: not given

| binding affinity ratio (IC50 of standard peptide / IC50 of test peptide) | Substance |
| --- | --- |
| 0.11 | PAP peptide … (position 183, 9 amino acids) |
| 0.024 | PAP peptide … (position 309, 10 amino acids) |
| 0.77 | PSM peptide … (position 178, 9 amino acids) |
| 0.0001 | PSM peptide … (position 638, 9 amino acids) |

Biological target: HLA-A*2401 (human)
Assay: competition with 125I-labelled standard peptide for purified HLA, gel filtration; relative binding
Conditions: not given

| Substance | binding affinity ratio (IC50 of standard peptide / IC50 of test peptide) |
| --- | --- |
| … (PAP, position 96) (peptide) | 0.26 |
| … (PSA, position 224) (peptide) | 0.0001 |

Other lines, results leading:

| binding affinity ratio (IC50 of standard peptide / IC50 of test peptide) | Substance |
| --- | --- |
| 0.0007 | … (PSA, position 54) (peptide) |
| 0.77 | … (PSM, position 178) (peptide) |
| 3.2 | … (PSM, position 624) (peptide) |

Biological target: HLA-A*2401 (human)
Assay: competition with a 125I-labelled standard peptide for purified HLA, gel filtration; value relative to the standard peptide
Conditions: not given

| binding affinity ratio (IC50 of the standard peptide / IC50 of the test peptide) | Substance |
| --- | --- |
| 0.032 | PAP peptide … (position 302, 9 amino acids) |

Biological target: HLA-A*2401 (human)
Assay: competition with a 125I-labelled standard peptide for purified HLA class I, bound and free peptide separated by gel filtration
Conditions: not given

| Substance | binding affinity ratio (IC50 of the standard peptide / IC50 of the test peptide) |
| --- | --- |
| PSA peptide …, position 152, 10 amino acids | 0.0001 |
| PSA peptide …, position 244, 10 amino acids | 0.055 |
| PSM peptide …, position 409, 10 amino acids | 0.054 |

Second part, the substance after the results:

| binding affinity ratio (IC50 of the standard peptide / IC50 of the test peptide) | Substance |
| --- | --- |
| 0.0001 | Kallikrein (hK2) peptide …, position 156, 10 amino acids |
| 0.055 | Kallikrein (hK2) peptide …, position 248, 10 amino acids |
